Data published in publication PMC3594540 (Nature structural & molecular biology, 2013).
Residue numbers refer to the chain shown, from its start.

Columns and labels:
[1] = molecular target: T1, PLCβ3 T652E (human, UniProt Q01970); assay: cell-based or functional assay
T1 chain: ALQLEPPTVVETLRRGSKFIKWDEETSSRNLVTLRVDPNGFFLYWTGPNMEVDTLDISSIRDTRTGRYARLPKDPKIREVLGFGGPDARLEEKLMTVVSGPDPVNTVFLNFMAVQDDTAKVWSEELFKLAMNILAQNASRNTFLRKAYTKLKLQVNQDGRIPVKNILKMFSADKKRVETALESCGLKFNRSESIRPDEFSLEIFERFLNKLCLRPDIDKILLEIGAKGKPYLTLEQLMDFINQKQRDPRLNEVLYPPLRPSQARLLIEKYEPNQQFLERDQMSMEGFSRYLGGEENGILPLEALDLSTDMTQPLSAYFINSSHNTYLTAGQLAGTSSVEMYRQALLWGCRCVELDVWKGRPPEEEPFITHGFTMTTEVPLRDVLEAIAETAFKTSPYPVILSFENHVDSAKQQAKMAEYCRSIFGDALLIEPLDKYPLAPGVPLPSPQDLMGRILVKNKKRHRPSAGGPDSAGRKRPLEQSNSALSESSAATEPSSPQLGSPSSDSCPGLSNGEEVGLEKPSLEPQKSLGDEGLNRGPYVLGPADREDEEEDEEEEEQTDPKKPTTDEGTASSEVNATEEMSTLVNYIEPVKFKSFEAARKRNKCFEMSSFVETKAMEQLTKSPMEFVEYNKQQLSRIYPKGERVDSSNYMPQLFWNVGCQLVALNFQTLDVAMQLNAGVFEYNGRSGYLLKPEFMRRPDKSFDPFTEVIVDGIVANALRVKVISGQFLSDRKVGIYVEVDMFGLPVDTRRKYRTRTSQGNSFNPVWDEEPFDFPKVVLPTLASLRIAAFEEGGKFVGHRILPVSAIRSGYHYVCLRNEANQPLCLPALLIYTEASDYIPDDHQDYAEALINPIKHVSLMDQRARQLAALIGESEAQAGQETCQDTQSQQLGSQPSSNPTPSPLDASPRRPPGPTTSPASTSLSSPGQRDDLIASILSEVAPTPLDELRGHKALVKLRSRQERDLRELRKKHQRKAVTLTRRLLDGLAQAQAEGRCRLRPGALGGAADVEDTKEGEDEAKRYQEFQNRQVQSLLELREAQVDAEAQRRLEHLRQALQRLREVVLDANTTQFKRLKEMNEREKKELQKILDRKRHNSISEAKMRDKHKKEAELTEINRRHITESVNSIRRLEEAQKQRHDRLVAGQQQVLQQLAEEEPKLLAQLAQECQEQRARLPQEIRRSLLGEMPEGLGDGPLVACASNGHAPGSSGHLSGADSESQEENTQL

[2] = molecular target: T2, PLCβ3 L876A EEE (human, UniProt Q01970); assay: cell-based or functional assay
T2 chain: T1 chain with E643T, L867A, I1120E, V1124E, I1127E

B1: murine Gαq (residues 7–359), biotinylated for bead binding (natural protein)
chain: MACCLSEEAKEARRINDEIERQLRRDKRDARRELKLLLLGTGESGKSTFIKQMRIIHGSGYSDEDKRGFTKLVYQNIFTAMQAMIRAMDTLKIPYKYEHNKAHAQLVREVDVEKVSAFENPYVDAIKSLWNDPGIQECYDRRREYQLSDSTKYYLNDLDRVADPSYLPTQQDVLRVRVPTTGIIEYPFDLQSVIFRMVDVGGQRSERRKWIHCFENVTSIMFLVALSEYDQVLVESDNENRMEESKALFRTIITYPWFQNSSVILFLNKKDLLEEKIMYSHLVDYFPEYDGPQRDAQAAREFILKMFVDLNPDSDKIIYSHFTCATDTENIRFVFAAVKDTILQLNLKEYNLV
For B1, the “EC50 of Gαq-stimulated PIP2 hydrolysis ([3H]-IP3 release from liposomes)” value [1] was 1150 nM, the “EC50 of Gαq-stimulated PIP2 hydrolysis ([3H]-IP3 release from liposomes)” value [2] was 32 nM and the “Max specific activity of Gαq-stimulated PIP2 hydrolysis (liposomes)” value [2] was 3900 nmol IP3/min/nmol PLCβ3.
